Legend:
[1] = test system: transgenic rice seedlings; experiment: glyphosate resistance of the EPSPS mutant in transgenic rice plants sprayed with glyphosate (Example 8, Table 1); assay type: in vivo, rice (Nipponbare); conditions: for glyphosate resistance of transformed rice seedlings (in words): glyphosate sprayed at the 1× dosage; for survival of transformed rice seedlings (in words): 2× and 5× glyphosate dosages
Source text: A method for detecting the glyphosate resistance of the G1 soybean EPSPS mutant (SEQ ID NO: 20), G2 soybean EPSPS mutant (SEQ ID NO: 22) and G3 soybean EPSPS mutant (SEQ ID NO: 24) provided in Example 7, the R1 rice EPSPS mutant (SEQ ID NO: 4) provided in Example 5, and the Z1 maize EPSPS mutant (SEQ ID NO: 12) provided in Example 6 in the transgenic rice is as follows:
The plasmids (containing the EPSPS mutant gene) of the monoclonal resistant bacteria of pADV5-EPSPS in Examples 1-7 were extracted by a conventional method, followed by double enzyme digestion by Pac1 and BstEII, the small fragments were collected, and then the small fragments were ligated, using T4 DNA ligase, to the pGVP1 vectors that had undergone the same double enzyme digestion, to obtain a pGVP1-EPSPS vector having a structure as shown in FIG. 8.
In the present example, the glyphosate resistance of the EPSPS mutant in transgenic rice plants were verified. An experiment method is as follows:
The transgenic rice seedlings transplanted were uniformly arranged in a same experiment area (preventing leaves from overlapping). The areas occupied by the experiment groups and the control group were calculated, and according to the areas, glyphosate was sprayed at a 1× dosage of 1060 g/hectare (0.106 g/m^2). 2× dosage was 2120 g/hectare, 5× dosage was 5300 g/hectare, and 20× dosage was 21200 g/hectare.
Commercially available Roundup® 41% ammonium glyphosate was used. Roundup® ammonium glyphosate with corresponding volumes was taken according to the above sprayed concentrations, then diluted with 20 times of volume of water, and then uniformly sprayed on the plants in the experiment groups and the control group. After leaf surfaces were dry, the plants were moved into greenhouse or outdoor to cultivate.
After the glyphosate was sprayed at the 1× dosage, growth states of the plants in each group were observed and recorded on a 10th day, and glyphosate was sprayed to the survived plants at the 2× dosage. The growth states of the plants in each group were observed and recorded 10 days later, and glyphosate was sprayed to the survived plants at the 5× dosage. The growth states of the plants in each group were observed and recorded 10 days later, and glyphosate was sprayed to the survived plants at the 20× dosage. The growth states of the plants in each group were observed and recorded 10 days later, and results are shown in Table 1, wherein corresponding numbers of plants denoted by −, +, ++ and +++ are listed, and “%++&+++” is percentage of plant having medium and high glyphosate resistance to the total number of plants observed.

double knockout E. coli [2] = experiment: growth of E. coli transformed by genes encoding soybean EPSPS (wild type and mutants) in culture media containing different glyphosate concentrations (Example 7, FIG. 3); assay type: cell-based; conditions: culture media containing 20 mM glyphosate
double knockout E. coli [3] = experiment: growth of E. coli transformed by genes encoding maize EPSPS (wild type and mutants) in culture media containing different glyphosate concentrations (Example 6, FIG. 2); assay type: cell-based
Source text: E. coli transformed by the gene (SEQ ID NO: 9, which encoded the wild-type maize EPSPS represented by SEQ ID NO: 10) encoding the wild-type maize EPSPS was taken as a control group.
E. coli transformed by the gene (SEQ ID NO: 11, which encoded SEQ ID NO: 12) encoding the maize EPSPS mutant I that contained only a single mutation K94(85)I, was taken as Experiment Group 1.
E. coli transformed by the gene (with a nucleotide sequence represented by SEQ ID NO: 13, and the amino acid sequence of the encoded three-mutation maize EPSPS mutant is represented by SEQ ID NO: 14) encoding the maize EPSPS mutant that contained only three mutations G105(96)A, P110(101)S and K207(194)R but no mutation K94(85)I, was taken as Experiment Group 2.
E. coli transformed by the gene (SEQ ID NO: 15) encoding the maize EPSPS mutant (containing four mutations: K94(85)I, G105(96)A, P110(101)S and K207(194)R) provided in Example 3 was taken as Experiment Group 3.
The glyphosate resistance of the gene encoding the maize EPSPS mutant and the maize EPSPS mutant encoded thereby in the E. coli was verified by detecting the growth situation of the transformed E. coli in culture media containing different glyphosate concentrations (0, 1, 20, 50 mM). In the above, the E. coli used is double knockout E. coli.
Results are as shown in FIG. 2 (wherein Z0 represents a control group, Z1 represents Experiment Group 1, Z2 represents Experiment Group 2, and Z3 represents Experiment Group 3).

[4] = 1X dosage (1060 g/hectare glyphosate), recorded on 10th day
[5] = 2X dosage (2120 g/hectare) sprayed to plants surviving 1X, recorded 10 days later
[6] = 5X dosage (5300 g/hectare) sprayed to plants surviving 2X, recorded 10 days later
[7] = 20X dosage (21200 g/hectare) sprayed to plants surviving 5X, recorded 10 days later
[8] = culture media containing 1 mM glyphosate

B1: G3: soybean EPSPS mutant, SEQ ID NO: 24, two mutations K98(85)T and P114(101)S (protein)
chain: MAAAEKPSTAPEIVLEPIKDISGTITLPGSKSLSNRILLLAALSEGTTVVDNLLYSEDIHYMLGALRTLGLRVEDDQTTKQAIVEGCGGLFPTIKESTDEINLFLGNAGTAMRSLTAAVVAAGGNASYVLDGVPRMRERPIGDLVAGLKQLGADVDCFLGTNCPPVRVNGKGGLPGGKVKLSGSVSSQYLTALLMAAPLALGDVEIEIVDKLISVPYVEMTLKLMERFGVSVEHSGDWDKFLVHGGQKYKSPGNAFVEGDASSASYFLAGAAVTGGTITVNGCGTSSLQGDVKFAEVLEKMGAKVTWSENSVTVTGPPQDSSGQKVLQGIDVNMNKMPDVAMTLAVVALFANGQTTIRDVASWRVKETERMIAICTELRKLGATVEEGPDYCVITPPEKLNVTAIDTYDDHRMAMAFSLAACGDVPVTIKDPGCTRKTFPDYFEVLERFTRH
modifications: Glycine max EPSPS mutant with mutations K98(85)T and P114(101)S
With B1 the “% ++&+++ (percentage of plant having medium and high glyphosate resistance to the total number of plants observed)” value [1, 4] was 45.2%, the “number of plants with resistance + (low glyphosate resistance)” value (shortened to “number … (low glyphosate resistance)”) [1, 4] was 1 and the “number of plants with resistance ++ (medium glyphosate resistance)” value (shortened to “number … (medium glyphosate resistance)”) [1, 4] was 9. The “number of plants with resistance +++ (high glyphosate resistance)” value (shortened to “number of plants with resistance +++”) [1, 4] was 5, the “number of plants with resistance − (no glyphosate resistance)” value (from here on “number … (no glyphosate resistance)”) [1, 4] was 16 and the “% ++&+++ (percentage of plant having medium and high glyphosate resistance to the total number of plants observed)” value [1, 5] was 19.4%. For the same molecule, the “number … (low glyphosate resistance)” value [1, 5] was 5, the “number … (medium glyphosate resistance)” value [1, 5] was 6 and the “number of plants with resistance +++” value [1, 5] was 0. For the same molecule, the “number … (no glyphosate resistance)” value [1, 5] was 20, the “% ++&+++ (percentage of plant having medium and high glyphosate resistance to the total number of plants observed)” value [1, 6] was 0.0% and the “number … (low glyphosate resistance)” value [1, 6] was 10. For the same molecule, the “number … (medium glyphosate resistance)” value [1, 6] was 0, the “number of plants with resistance +++” value [1, 6] was 0 and the “number … (no glyphosate resistance)” value [1, 6] was 21. For the same molecule, the “% ++&+++ (percentage of plant having medium and high glyphosate resistance to the total number of plants observed)” value [1, 7] was 0.0%, the “number … (low glyphosate resistance)” value [1, 7] was 3 and the “number … (medium glyphosate resistance)” value [1, 7] was 0. For the same molecule, the “number of plants with resistance +++” value [1, 7] was 0, the “number … (no glyphosate resistance)” value [1, 7] was 28 and the “glyphosate resistance of transformed rice seedlings (in words)” value (“glyphosate resistance … (in words)” for short) [1] was “certain resistance to glyphosate”. The “growth of transformed E. coli” value (double knockout E. coli [2]) was “superior to that of Experiment Group 2 (G2)”.

B2: Z1: maize EPSPS mutant I, SEQ ID NO: 12, containing only a single mutation K94(85)I (protein)
chain: MAVQAGAEEIVLQPIKEISGTVKLPGSKSLSNRILLLAALSEGTTVVDNLLNSEDVHYMLGALRTLGLSVEADKAAKRAVVVGCGGKFPVEDSIEEVQLFLGNAGTAMRPLTAAVTAAGGNATYVLDGVPRMRERPIGDLVVGLKQLGADVDCFLGTDCPPVRVNGIGGLPGGKVKLSGSISSQYLSALLMAAPLALGDVEIEIIDKLISIPYVEMTLRLMERFGVKAEHSDSWDRFYIKGGQKYKSPKNAYVEGDASSASYFLAGAAITGGTVTVEGCGTTSLQGDVKFAEVLEMMGAKVTWTETSVTVTGPPREPFGRKHLKAIDVNMNKMPDVAMTLAVVALFADGPTAIRDVASWRVKETERMVAIRTELTKLGASVEEGPDYCIITPPEKLNVTAIDTYDDHRMAMAFSLAACAEVPVTIRDPGCTRKTFPDYFDVLSTFVKN
modifications: Zea mays EPSPS mutant with mutation K94(85)I
B2 was tested, and the “% ++&+++ (percentage of plant having medium and high glyphosate resistance to the total number of plants observed)” value [1, 4] was 10.5%, the “number … (low glyphosate resistance)” value [1, 4] was 1 and the “number … (medium glyphosate resistance)” value [1, 4] was 2. For the same molecule, the “number of plants with resistance +++” value [1, 4] was 0, the “number … (no glyphosate resistance)” value [1, 4] was 16 and the “% ++&+++ (percentage of plant having medium and high glyphosate resistance to the total number of plants observed)” value [1, 5] was 0.0%. The “number … (low glyphosate resistance)” value [1, 5] was 3, the “number … (medium glyphosate resistance)” value [1, 5] was 0 and the “number of plants with resistance +++” value [1, 5] was 0. For the same molecule, the “number … (no glyphosate resistance)” value [1, 5] was 16, the “survival of transformed rice seedlings (in words)” value [1] was “some of the rice seedlings transformed by the maize EPSPS mutant Z1 survived” and the “% ++&+++ (percentage of plant having medium and high glyphosate resistance to the total number of plants observed)” value [1, 6] was 0.0%. For the same molecule, the “number … (low glyphosate resistance)” value [1, 6] was 2, the “number … (medium glyphosate resistance)” value [1, 6] was 0 and the “number of plants with resistance +++” value [1, 6] was 0. The “number … (no glyphosate resistance)” value [1, 6] was 17, the “% ++&+++ (percentage of plant having medium and high glyphosate resistance to the total number of plants observed)” value [1, 7] was 0.0% and the “number … (low glyphosate resistance)” value [1, 7] was 0. For the same molecule, the “number … (medium glyphosate resistance)” value [1, 7] was 0, the “number of plants with resistance +++” value [1, 7] was 0 and the “number … (no glyphosate resistance)” value [1, 7] was 19. For the same molecule, the “glyphosate resistance … (in words)” value [1] was “obviously superior to that of Z0”, the “growth of transformed E. coli” value (double knockout E. coli [3]; culture media containing 0 mM glyphosate and 1 mM glyphosate) was “obviously superior to that of control group (Z0)” and the “growth of transformed E. coli” value (double knockout E. coli [3]; [8]) was “obviously superior to that of the control group (Z0)”.

B3: Z0: wild-type maize EPSPS represented by SEQ ID NO: 10; control group of Example 6 (protein)
chain: MAVQAGAEEIVLQPIKEISGTVKLPGSKSLSNRILLLAALSEGTTVVDNLLNSEDVHYMLGALRTLGLSVEADKAAKRAVVVGCGGKFPVEDSKEEVQLFLGNAGTAMRPLTAAVTAAGGNATYVLDGVPRMRERPIGDLVVGLKQLGADVDCFLGTDCPPVRVNGIGGLPGGKVKLSGSISSQYLSALLMAAPLALGDVEIEIIDKLISIPYVEMTLRLMERFGVKAEHSDSWDRFYIKGGQKYKSPKNAYVEGDASSASYFLAGAAITGGTVTVEGCGTTSLQGDVKFAEVLEMMGAKVTWTETSVTVTGPPREPFGRKHLKAIDVNMNKMPDVAMTLAVVALFADGPTAIRDVASWRVKETERMVAIRTELTKLGASVEEGPDYCIITPPEKLNVTAIDTYDDHRMAMAFSLAACAEVPVTIRDPGCTRKTFPDYFDVLSTFVKN
modifications: Zea mays
In the case of B3, the “% ++&+++ (percentage of plant having medium and high glyphosate resistance to the total number of plants observed)” value [1, 4] is reported as 0.0%, the “number … (low glyphosate resistance)” value [1, 4] is reported as 4 and the “number … (medium glyphosate resistance)” value [1, 4] is reported as 0. The “number of plants with resistance +++” value [1, 4] was 0, the “number … (no glyphosate resistance)” value [1, 4] was 16 and the “% ++&+++ (percentage of plant having medium and high glyphosate resistance to the total number of plants observed)” value [1, 5] was 0.0%. For the same molecule, the “number … (low glyphosate resistance)” value [1, 5] was 0, the “number … (medium glyphosate resistance)” value [1, 5] was 0 and the “number of plants with resistance +++” value [1, 5] was 0. The “number … (no glyphosate resistance)” value [1, 5] was 20, the “survival of transformed rice seedlings (in words)” value [1] was “no rice transformed by the wild-type maize EPSPS Z0 survived” and the “% ++&+++ (percentage of plant having medium and high glyphosate resistance to the total number of plants observed)” value [1, 6] was 0.0%. For the same molecule, the “number … (low glyphosate resistance)” value [1, 6] was 0, the “number … (medium glyphosate resistance)” value [1, 6] was 0 and the “number of plants with resistance +++” value [1, 6] was 0. For the same molecule, the “number … (no glyphosate resistance)” value [1, 6] was 20, the “% ++&+++ (percentage of plant having medium and high glyphosate resistance to the total number of plants observed)” value [1, 7] was 0.0% and the “number … (low glyphosate resistance)” value [1, 7] was 0. For the same molecule, the “number … (medium glyphosate resistance)” value [1, 7] was 0, the “number of plants with resistance +++” value [1, 7] was 0 and the “number … (no glyphosate resistance)” value [1, 7] was 20. The “glyphosate resistance … (in words)” value [1] was “no plant having medium or high glyphosate resistance” and the “growth of transformed E. coli” value (double knockout E. coli [3]; [8]) was “weak”.
